In this assay the target is Apurinic/apyrimidinic-endonuclease 1 (UniProt P27695 1-318). Nature of the assay: SPR. A general note: Surface plasmon resonance follows binding to a sensor surface in real time, without labels.
Sequence of Apurinic/apyrimidinic-endonuclease 1 (P27695 whole entry): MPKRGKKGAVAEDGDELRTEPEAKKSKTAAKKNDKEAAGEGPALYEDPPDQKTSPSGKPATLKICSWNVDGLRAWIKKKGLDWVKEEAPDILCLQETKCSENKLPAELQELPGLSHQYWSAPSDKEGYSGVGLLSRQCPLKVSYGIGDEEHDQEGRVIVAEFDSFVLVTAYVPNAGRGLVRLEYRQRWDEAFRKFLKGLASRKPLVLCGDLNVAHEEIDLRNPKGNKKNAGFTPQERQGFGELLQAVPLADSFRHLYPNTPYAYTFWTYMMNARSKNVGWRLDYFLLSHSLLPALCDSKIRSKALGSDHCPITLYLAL

B1: LIGIIIα▵BRCT (1–755 amino acids) (domain or fragment)
chain: MAEQRFCVDYAKRGTAGCKKCKEKIVKGVCRIGKVVPNPFSESGGDMKEWYHIKCMFEKLERARATTKKIEDLTELEGWEELEDNEKEQITQHIADLSSKAAGTPKKKAVVQAKLTTTGQVTSPVKGASFVTSTNPRKFSGFSAKPNNSGEAPSSPTPKRSLSSSKCDPRHKDCLLREFRKLCAMVADNPSYNTKTQIIQDFLRKGSAGDGFHGDVYLTVKLLLPGVIKTVYNLNDKQIVKLFSRIFNCNPDDMARDLEQGDVSETIRVFFEQSKSFPPAAKSLLTIQEVDEFLLRLSKLTKEDEQQQALQDIASRCTANDLKCIIRLIKHDLKMNSGAKHVLDALDPNAYEAFKASRNLQDVVERVLHNAQEVEKEPGQRRALSVQASLMTPVQPMLAEACKSVEYAMKKCPNGMFSEIKYDGERVQVHKNGDHFSYFSRSLKPVLPHKVAHFKDYIPQAFPGGHSMILDSEVLLIDNKTGKPLPFGTLGVHKKAAFQDANVCLFVFDCIYFNDVSLMDRPLCERRKFLHDNMVEIPNRIMFSEMKRVTKALDLADMITRVIQEGLEGLVLKDVKGTYEPGKRHWLKVKKDYLNEGAMADTADLVVLGAFYGQGSKGGMMSIFLMGCYDPGSQKWCTVTKCAGGHDDATLARLQNELDMVKISKDPSKIPSWLKVNKIYYPDFIVPDPKKAAVWEITGAEFSKSEAHTADGISIRFPRCTRIRDDKDWKSATNLPQLKELYQLSKEKADFTVVA
As usually defined, the Kd is the concentration at which binding is half-saturated. A low value points to a tighter complex. Regarding B1, the dissociation constant Kd came to 1050 nM.

B2: LIGIIIα▵ZnF (170–922 amino acids) (domain or fragment)
chain: RHKDCLLREFRKLCAMVADNPSYNTKTQIIQDFLRKGSAGDGFHGDVYLTVKLLLPGVIKTVYNLNDKQIVKLFSRIFNCNPDDMARDLEQGDVSETIRVFFEQSKSFPPAAKSLLTIQEVDEFLLRLSKLTKEDEQQQALQDIASRCTANDLKCIIRLIKHDLKMNSGAKHVLDALDPNAYEAFKASRNLQDVVERVLHNAQEVEKEPGQRRALSVQASLMTPVQPMLAEACKSVEYAMKKCPNGMFSEIKYDGERVQVHKNGDHFSYFSRSLKPVLPHKVAHFKDYIPQAFPGGHSMILDSEVLLIDNKTGKPLPFGTLGVHKKAAFQDANVCLFVFDCIYFNDVSLMDRPLCERRKFLHDNMVEIPNRIMFSEMKRVTKALDLADMITRVIQEGLEGLVLKDVKGTYEPGKRHWLKVKKDYLNEGAMADTADLVVLGAFYGQGSKGGMMSIFLMGCYDPGSQKWCTVTKCAGGHDDATLARLQNELDMVKISKDPSKIPSWLKVNKIYYPDFIVPDPKKAAVWEITGAEFSKSEAHTADGISIRFPRCTRIRDDKDWKSATNLPQLKELYQLSKEKADFTVVAGDEGSSTTGGSSEENKGPSGSAVSRKAPSKPSASTKKAEGKLSNSNSKDGNMQTAKPSAMKVGEKLATKSSPVKVGEKRKAADETLCQTKVLLDIFTGVRLYLPPSTPDFSRLRRYFVAFDGDLVQEFDMTSATHVLGSRDKNPAAQQVSPEWIWACIRKRRLVAPC
For B2, binding was put at a Kd of 4.9 nM.

The values are drawn from article PMC11176775 (2024).
